Test results: patent US20220411495A1, “POSITIVE ALLOSTERIC MODULATORS OF THE CALCIUM-SENSING RECEPTOR” (VIB VZW, priority 2019, published 2022)

Legend:
[1] = clinical development; cited from earlier work
[2] = biological target: T1, human CaSR wild type (hCaSR WT) (Homo sapiens, UniProt P41180, E1011Q); assay: Advanced phospho-ERK1/2 assay, HEK293 HA-hCaSR WT cells; type: cell-based; details: 5 μM nanobody, EC20 Ca2+
T1 construct: mGlu5 signal peptide (N, cleaved yes); expressed in transfected cells
T1 sequence (P41180 20-1078 E1011Q): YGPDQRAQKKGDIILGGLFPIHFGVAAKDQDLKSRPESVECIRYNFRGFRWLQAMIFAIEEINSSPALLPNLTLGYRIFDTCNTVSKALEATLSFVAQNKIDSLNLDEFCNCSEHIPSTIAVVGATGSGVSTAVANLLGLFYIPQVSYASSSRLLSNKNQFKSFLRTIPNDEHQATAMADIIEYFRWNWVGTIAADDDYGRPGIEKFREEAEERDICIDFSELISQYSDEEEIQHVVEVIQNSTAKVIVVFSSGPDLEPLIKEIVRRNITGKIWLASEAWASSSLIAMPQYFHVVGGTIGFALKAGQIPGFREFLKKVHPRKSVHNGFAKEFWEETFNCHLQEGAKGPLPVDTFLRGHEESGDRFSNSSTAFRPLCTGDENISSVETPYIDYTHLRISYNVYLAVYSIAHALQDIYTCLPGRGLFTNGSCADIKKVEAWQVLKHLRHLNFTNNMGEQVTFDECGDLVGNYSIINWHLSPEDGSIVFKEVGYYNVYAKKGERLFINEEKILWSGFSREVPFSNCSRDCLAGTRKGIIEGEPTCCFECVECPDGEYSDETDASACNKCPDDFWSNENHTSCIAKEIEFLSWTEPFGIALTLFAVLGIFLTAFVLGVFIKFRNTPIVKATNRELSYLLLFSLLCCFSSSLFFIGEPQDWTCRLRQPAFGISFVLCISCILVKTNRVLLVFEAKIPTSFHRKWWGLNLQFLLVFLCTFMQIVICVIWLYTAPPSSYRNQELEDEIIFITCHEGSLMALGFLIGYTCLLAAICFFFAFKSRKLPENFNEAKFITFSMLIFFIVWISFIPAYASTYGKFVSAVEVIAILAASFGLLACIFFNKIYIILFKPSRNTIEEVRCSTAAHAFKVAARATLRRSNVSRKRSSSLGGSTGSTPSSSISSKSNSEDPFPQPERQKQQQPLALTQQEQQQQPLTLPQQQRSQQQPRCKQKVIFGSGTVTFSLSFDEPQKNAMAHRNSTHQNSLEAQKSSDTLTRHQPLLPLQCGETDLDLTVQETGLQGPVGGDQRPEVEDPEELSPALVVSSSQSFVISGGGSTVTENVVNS
Protocol: Nanobodies were successfully purified by immobilized metal ion affinity chromatography (IMAC) and size exclusion chromatography (SEC) prior to pharmacological characterization (FIG. 1). Each nanobody was initially screened for Gq/11 activity in the Cisbio IP1 accumulation assay as this is the primary signaling pathway of CaSR (Chavez-Abiega et al., 2020). Whole HEK293 HA-hCaSR WT cells were pre-incubated for 30 minutes at 37° C. with a fixed nanobody concentration (5 μM) prior to stimulation with the endogenous ligand Ca^2+. The well characterized positive allosteric modulator (PAM) chemical NPS R-568 and negative allosteric modulator (NAM) chemical NPS 2143 were added as reference compounds. […] No nanobodies with agonist or NAM activity were observed when all nanobodies screened in the absence or in the presence of EC80 Ca^2+, respectively (FIGS. 4A and 4B). […] Except for CaSR Nb5, the same nanobodies acted as PAMs when ERK1/2 phosphorylation was measured in the presence of EC20 Ca^2+ (FIG. 2B). Again, none of the nanobodies elicited an agonist or NAM response (FIGS. 5B and 5C).
Phosphorylation of ERK1/2 at T202 and Y204 was measured with the HTRF® Advanced Phospho-ERK1/2 assay (Cisbio Bioassays, Codolet, France). […] Upon excitation at 340 nm, emission at 615 and 665 nm was measured on an EnVision multimode plate reader (PerkinElmer, Waltham, Mass., USA). […]

[3] = biological target: T2, extracellular Venus flytrap domain of CaSR (Homo sapiens, UniProt P41180); assay: Surface plasmon resonance on isolated purified Venus flytrap domain; type: binding
T2 sequence (P41180 20-610 limits assumed): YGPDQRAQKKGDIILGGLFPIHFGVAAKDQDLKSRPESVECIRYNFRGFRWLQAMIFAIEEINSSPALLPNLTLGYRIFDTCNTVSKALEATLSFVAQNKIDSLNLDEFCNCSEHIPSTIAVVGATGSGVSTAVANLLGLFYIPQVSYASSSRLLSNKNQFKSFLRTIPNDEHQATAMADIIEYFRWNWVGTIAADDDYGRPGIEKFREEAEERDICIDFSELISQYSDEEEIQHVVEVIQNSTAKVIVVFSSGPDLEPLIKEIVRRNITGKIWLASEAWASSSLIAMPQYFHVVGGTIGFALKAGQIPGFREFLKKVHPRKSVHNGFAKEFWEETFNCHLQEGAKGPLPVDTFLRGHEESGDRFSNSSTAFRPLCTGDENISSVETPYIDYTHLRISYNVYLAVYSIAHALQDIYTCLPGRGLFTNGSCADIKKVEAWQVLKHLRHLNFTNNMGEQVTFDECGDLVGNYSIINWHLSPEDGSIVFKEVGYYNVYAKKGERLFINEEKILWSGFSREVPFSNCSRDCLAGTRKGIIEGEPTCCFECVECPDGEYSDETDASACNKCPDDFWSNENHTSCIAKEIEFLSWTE

Molecule: COc1cccc([C@@H](C)NCCCc2ccccc2Cl)c1 [NPS R-568, reference compound]
- Oral bioavailability [1]: < 5%

B1: Nb5: llama-derived CaSR-specific nanobody, weakest PAM, SEQ ID NO:8 (protein)
VHH: QVQLVESGGRLVQDGGSLRLSCAASGLTFSDYSMGWFRQVPGKEREFVAVIRRSNDSTYYADFVKGRFTISRDNAKNTVYLQMNSLQPEDTAVYSCAADRGGVGLTSAQTYAYWGQGTQVTVSS
modifications: CaSR Nb5
- PAM activity in phospho-ERK1/2 assay [2]: could not be confirmed

B2: Nb4: llama-derived CaSR-specific nanobody acting as PAM, SEQ ID NO:5 (protein)
VHH: QVQLVESGGGLVQAGGSLRLSCAASGRTFSTYRMGWFRQGLGKEREFVAAITANGVRTFYTDSVKGRFTISRDNAKNTLYLQMNSLQPDDTAVYLCAARRKGIFTVQQAQDITDWDYWGQGTQVTVSS
modifications: CaSR Nb4
- Binding to isolated Venus flytrap domain (SPR) [3]: binds
- Dependence of binding affinity on endogenous ligands (SPR) ([3]; Ca2+ and/or L-Trp): synergistically increases upon the presence of both ligands
